B1: E5 (antibody, V domains shown)
VH: EVQLVQSGAEVKKPGASVKVSCKVSGYSFTDHSIHWVRQAPGKGLEWMGGINPYTGDTIYAQKFQGRVTMTEDTSTDTAYMELSSLKSEDTAVYYCAKDGWGSLLNGIAVAGLDYWGQGTLVTVSS
VL: DIQMTQSPSSVSASVGDRVTITCRASQDISTYLAWYQQKPGKAPKLLIYASSNLASGVPSRFSGSGSGTDFTLTISSLQPEDFANYYCHQYATYPWGFGGGTKVEIK
B2: G8 (antibody, V domains shown)
VH: EVQLVESGAEVKKPGASVKVSCKVSGYSFTDHSIHWVRQAPGKGLEWMGGINPYTGDTIYAQKFQGRVTMTEDTSTDTAYMELSSLKSEDTAVYYCARDGWGSLLNGIAVAGLDYWGQGTLVTVSS
VL: DIQMTQSPSSVSASVGDRVTITCRASQSIGSFLAWYQQKPGKAPKLLIYASSNLASGVPSRFSGSGSGTDFTLTISSLQPEDFANYYCHQYATYPWTFGGGTKVEIK
B3: G9 (antibody, V domains shown)
VH: QVQLVQSGAEVKKPGASVKVSCKVSGYSFTDHSIHWVRQAPGKGLEWMGGINPYTGDTIYAQKFQGRVTMTEDTSTDTAYMELSSLKSEDTAVYYCARDGYGDYRGLYGMDVWGRGTTVTVSS
VL: DIQMTQSPSSVSASVGDRVTITCRASQDIGNHLAWYQQKPGKAPKLLIYASSNLASGVPSRFSGSGSGTDFTLTISSLQPEDFANYYCHQYATYPWTFGGGTKVEIK
B4: A2 (antibody, V domains shown)
VH: QVQLVESGAEVKKPGASVKVSCKVSGYSFTDHSIHWVRQAPGKGLEWMGGINPYTGDTIYAQKFQGRVTMTEDTSTDTAYMELSSLKSEDTAVYYCARDGYCSGGSCYSFSGYGMDVWGQGTTVTVS
VL: DIQMTQSPSSVSASVGDRVTITCRASQDIGNHLAWYQQKPGKAPKLLIYASSNLASGVPSRFSGSGSGTDFTLTISSLQPEDFANYYCHQYTTYPWTFGGGTKVEIK
B5: H9 (antibody, V domains shown)
VH: EVQLVESGAEVKKPGASVKVSCKVSGYSFTDHSIHWVRQAPGKGLEWMGGINPYTGDTIYAQKFQGRVTMTEDTSTDTAYMELSSLKSEDTAVYYCARDAYSGSYPYYYYGMDVWGQGTTVTVSS
VL: DIQMTQSPSSVSASVGDRVTITCRASQNIDTFLAWYQQKPGKAPKLLIYASSNLASGVPSRFSGSGSGTDFTLTISSLQPEDFANYYCHQYATYPWTFGDGTKVEIK
B6: H5 (antibody, V domains shown)
VH: EVQLVQSGAEVKKPGASVKVSCKVSGYSFTDHSIHWVHQAPGKGLEWMGGINPYTGDTIYAQKFQGRVTMTEDTSTDTAYMELSSLKSEDTAVYYCARDGYYGSGTYYYYGMDVWGQGTTVTVSS
VL: DIQMTQSPSSVSASVGDRVTITCRASQSISTYLAWYQQKPGKAPKLLIYDASNRATGVPSRFSGSGSGTDFTLTISSLQPEDFANYYCLQYHNYPWTFGGGTKVEIK
B7: E4 (antibody, V domains shown)
VH: QVQLVQSGAEVKKPGASVKVSCKVSGYSFTDHSIHWVRQAPGKGLEWMGGINPYTGDTIYAQKFQGRVTMTEDTSTDTAYMELSSLKSEDTAVYYCARDGYDFWSGSYGMDVWGQGTLVTVSS
VL: DIQMTQSPSSVSASVGDRVTITCRASQDIGNHLAWYQQKPGKAPKLLIYASSNLASGVPSRFSGSGSGTDFTLTISSLQPEDFANYYCHQYATYPWTFGGGTKVEIK
B8: H7 (antibody, V domains shown)
VH: EVQLVQSGAEVKKPGASVKVSCKVSGYSFTDHSIHWVRQAPGKGLEWMGGINPYTGDTIYAQKFQGRVTMTEDTSTDTAYMELSSLKSEDTAVYYCARDGYDFWSGSYGMDVWGQGAQVTVS
VL: DIQMTQSPSSVSASVGDRVTITCRASQDIGNHLAWYQQKPGKAPKLLIYGVSERPSGVPSRFSGSGSGTDFTLTISSLQPEDFANYYCHQYATYPWTFGDGTKVEIK
B9: selected anti-SARS-CoV-2 spike antibody G5 (antibody, V domains shown)
VH: QVQLVQSGAEVKKPGASVKVSCKVSGYSFTDHSIHWVRQAPGKGLEWMGGINPYTGDTIYAQKFQGRVTMTEDTSTDTAYMELSSLKSEDTAVYYCARDGYSYGYLSGMDVWGQGTTVTVSS
VL: DIQMTQSPSSVSASVGDRVTITCRASQDISHHLAWYQQKPGKAPKLLIYDASLRATGIPSRFSGSGSGTDFTLTISSLQPEDFANYYCHQYAAYPWTFGGGTKVEIK
B10: selected anti-SARS-CoV-2 spike antibody G12 (antibody, V domains shown)
VH: EVQLVQSGAEVKKPGASVKVSCKVSGYTFSNHAIHWVRQAPGKGLEWMGGINPNIGDTIYAQKFQGRVTMTEDTSTDTAYMELSSLKSEDTAVYYCARDGYGDYRGLYGMDVWGQGTTVTVSS
VL: DIQMTQSPSSVSASVGDRVTITCRASQDIGNHLAWYQQKPGKAPKLLIYASSNLASGVPSRFSGSGSGTDFTLTISSLQPEDFANYYCHQYATYPWTFGGGTKVEIK
B11: selected anti-SARS-CoV-2 spike antibody G6 (antibody, V domains shown)
VH: EVQLVESGAEVKKPGASVKVSCKVSGYTFSNHAIHWVRQAPGKGLEWMGGINPNIGDTIYAQKFQGRVTMTEDTSTDTAYMELSSLKSEDTAVYYCARDGYPGDYSGLDVWGQGTLVTVSS
VL: DIQMTQSPSSVSASVGDRVTITCRASQPISSYLAWYQQKPGKAPKLLIYEASKLQSGVPSRFSGSGSGTDFTLTISSLQPEDFANYYCHQYATYPWTFGGGTKVEIK
B12: selected anti-SARS-CoV-2 spike antibody H2 (antibody, V domains shown)
VH: EVQLVQSGAEVKKPGASVKVSCKVSGYPFTRSTIHWVRQAPGKGLEWMGGINAGTGDTIYAQKFQGRVTMTEDTSTDTAYMELSSLKSEDTAVYYCARDGYSSGYYGMDVWGQGTLVTVSS
VL: DIQMTQSPSSVSASVGDRVTITCRASQGISDFLAWYQQKPGKAPKLLIYGASNRATGVPSRFSGSGSGTDFTLTISSLQPEDFANYYCHQYATYPWTFGGGTKVEIK
B13: selected anti-SARS-CoV-2 spike antibody A12 (antibody, V domains shown)
VH: EVQLVQSGAEVKKPGASVKVSCKVSGYSFTDHSIHWVRQAPGKGLEWMGGINPYTGDTIYAQKFQGRVTMTEDTSTDTAYMELSSLKSEDTAVYYCARDGWGSLLNGIAVAGLDYWGQGTLVTVSS
VL: DIQMTQSPSSVSASVGDRVTITCRASQDIGNHLAWYQQKPGKAPKLLIYASSNLASGVPSRFSGSGSGTDFTLTISSLQPEDFANYYCHQYATYPWTFGGGTKVEIK
B14: selected anti-SARS-CoV-2 spike antibody A11 (antibody, V domains shown)
VH: QVQLVQSGAEVKKPGASVKVSCKVSGYSFTDHSIHWVRQAPGKGLEWMGGINPYTGDTIYAQKFQGRVTMTEDTSTDTAYMELSSLKSEDTAVYYCARDGYSYGYLSGMDVWGQGTTVTVSS
VL: DIQMTQSPSSVSASVGDRVTITCRASQDIGNHLAWYQQKPGKAPKLLIYASSNLASGVPSRFSGSGSGTDFTLTISSLQPEDFANYYCHQYATYPWTFGGGTKVEIK
B15: selected anti-SARS-CoV-2 spike antibody B2 (antibody, V domains shown)
VH: QVQLVQSGAEVKKPGASVKVSCKVSGYSFTDHSIHWVRQAPGKGLEWMGGINPYTGDTIYAQKFQGRVTMTEDTSTDTAYMELSSLKSEDTAVYYCARDAYSGSYPYYYYGMDVWGQGTTVTVSS
VL: DIQMTQSPSSVSASVGDRVTITCRASEGISNYLAWYQQKPGKAPKLLIYGTSDRASGIPSRFSGSGSGTDFTLTISSLQPEDFANYYCQQYSAFPWTFGGGTKVEIK

Target: T1, SARS-CoV-2 spike receptor-binding domain (RBD) (SARS-CoV-2, Wuhan-Hu-1, UniProt P0DTC2)
Assay: not given
Conditions: not given

**Q.** Does B1 bind?
**A.** binds

**Q.** Does B2 bind?
**A.** binds

**Q.** Does B3 bind?
**A.** binds

**Q.** Does B4 bind?
**A.** binds

**Q.** Does B5 bind?
**A.** binds

**Q.** Does B6 bind?
**A.** binds

**Q.** Does B7 bind?
**A.** binds

**Q.** Does B8 bind?
**A.** binds

Target: T1, SARS-CoV-2 spike receptor-binding …
Assay: SPR; array SPR (Carterra LSA), HC200M chip; IgG captured on immobilised anti-human Fc; antigen as analyte in a 7-point series, RBD 300 nM to 411 pM or trimer 100 nM to 137 pM, in 1x HBSTE with 0.5 mg/mL BSA; association 5 min, dissociation 11 min; one-site model; constants for the trimer are called avidities
Conditions: both partners purified

**Q.** Does B9 bind?
**A.** binds

**Q.** Does B10 bind?
**A.** binds

**Q.** Does B11 bind?
**A.** binds

**Q.** Does B12 bind?
**A.** binds

**Q.** Does B13 bind?
**A.** binds

**Q.** Does B14 bind?
**A.** binds

**Q.** Does B15 bind?
**A.** binds

Source: article PMC8786865 (Nature Communications, 2022)
